One molecule from paper PMC5507214 can be followed below.

The series has as its target RPA (Homo sapiens, UniProt P27694;P15927;P35244 1-616;1-270;1-121). Briefly: EMSA. A general note: In EMSA bound probe runs differently from free probe, usually more slowly.

Chain of RPA (P27694 whole entry, chain 1 of 3): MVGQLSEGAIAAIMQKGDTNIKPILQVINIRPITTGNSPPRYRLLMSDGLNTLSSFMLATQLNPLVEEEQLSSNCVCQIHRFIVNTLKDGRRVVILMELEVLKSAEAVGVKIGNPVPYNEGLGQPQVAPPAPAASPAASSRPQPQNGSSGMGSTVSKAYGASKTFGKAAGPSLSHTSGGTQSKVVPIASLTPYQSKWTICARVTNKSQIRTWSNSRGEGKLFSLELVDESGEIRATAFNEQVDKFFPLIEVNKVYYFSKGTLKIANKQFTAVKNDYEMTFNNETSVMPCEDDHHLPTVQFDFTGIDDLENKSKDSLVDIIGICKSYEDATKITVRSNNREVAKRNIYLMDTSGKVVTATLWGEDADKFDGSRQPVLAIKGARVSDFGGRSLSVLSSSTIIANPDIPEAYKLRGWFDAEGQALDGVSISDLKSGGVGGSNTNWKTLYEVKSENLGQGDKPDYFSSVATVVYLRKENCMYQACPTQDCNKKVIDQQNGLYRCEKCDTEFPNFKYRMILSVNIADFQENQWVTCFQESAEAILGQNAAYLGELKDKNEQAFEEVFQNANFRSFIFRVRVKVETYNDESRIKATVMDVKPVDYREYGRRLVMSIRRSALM
Chain of RPA (P15927 whole entry, chain 2 of 3): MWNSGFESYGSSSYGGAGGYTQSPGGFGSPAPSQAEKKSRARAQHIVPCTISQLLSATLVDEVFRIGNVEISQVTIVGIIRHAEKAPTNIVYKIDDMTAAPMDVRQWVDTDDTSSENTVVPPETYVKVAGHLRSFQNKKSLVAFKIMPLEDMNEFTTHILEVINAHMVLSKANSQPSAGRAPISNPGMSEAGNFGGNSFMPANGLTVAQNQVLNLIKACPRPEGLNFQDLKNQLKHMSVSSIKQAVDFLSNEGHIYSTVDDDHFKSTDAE
Chain of RPA (P35244 whole entry, chain 3 of 3): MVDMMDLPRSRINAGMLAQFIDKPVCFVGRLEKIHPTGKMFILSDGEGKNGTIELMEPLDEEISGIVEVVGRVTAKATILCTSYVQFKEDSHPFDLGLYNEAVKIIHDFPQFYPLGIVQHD

B1: R:D (25-bp RNA:DNA hybrid) (DNA:RNA)
RNA: GCAGCUGGCACGACAGGUAUGAAUC
DNA: GATTCATACCTGTCGTGCCAGCTGC
As to B1, the binding result was “no binding”.
